Assay results published in patent US20220162327A1, “ANTI-CCR5 AGENTS AND METHODS OF TREATMENT THAT BLOCK CANCER METASTASIS OR ENHANCE CELL DEATH INDUCED BY DNA DAMAGING CHEMOTHERAPY” (CytoDyn Inc., priority 2019, published 2022).
Entries after “also recorded” stand apart in the source; their conditions may differ. Where two headings read alike, the source gives them in different places.

Key:
MDA-MB-231 cells = experiment: MTT assay, leronlimab combined with doxorubicin; format: cell-based, human; details: 10 mg/ml leronlimab with different dose of doxorubicin, 3 days
Description: FIG. 5A and FIG. 5B. […] The MTT assay was used to determine the relative cell number (FIG. 5A). The cells treated with maraviroc ([…]) combining with different dose of doxorubicin were used as positive control (FIG. 5B). Data are shown as mean±SEM for N=8.

[1] = test system: CCR5+ metastatic Triple Negative Breast Cancer; experiment: Phase Ib/II study, tumor imaging; format: in vivo, human
Text: (§1) The primary objective of Phase 1b is to determine the safety, tolerability and maximum tolerate dose (MTD) of PRO 140 in patients with TNBC, when combined with carboplatin to define a recommended Phase II dose of the combination. The primary objective of phase 2b is to evaluate the impact on progression-free survival (PFS) of the combination PRO 140 and carboplatin in patients with CCR5+ TNBC previously treated with anthracyclines and taxanes in neoadjuvant and adjuvant setting.
The baseline target lesion was identified in the right upper lung at the size of 25 mm. The lesion was described as pleural based, major fissure, soft tissue density nodule in the right hilum.
(§2) Each treatment cycle consisted of 21 days. […] This treatment regimen was used for all subjects enrolled in the mTNBC study, unless otherwise indicated.
Scans were taken at the end of every two cycles (every 6 weeks). The subject had Scan 1 after six weeks, a Scan 2 after 12 weeks, and Scan 3 after 18 weeks (Table 4).

CCR5 = CCR5 (Homo sapiens, UniProt P51681); experiment: FACS binding of leronlimab to CCR5 in MDA-MB-231-CCR5 cells; design: expressed in transfected cells; host or cells: MDA-MB-231 human breast cancer cell line (MDA-MB-231-CCR5)
CCR5, sequence (P51681 whole entry): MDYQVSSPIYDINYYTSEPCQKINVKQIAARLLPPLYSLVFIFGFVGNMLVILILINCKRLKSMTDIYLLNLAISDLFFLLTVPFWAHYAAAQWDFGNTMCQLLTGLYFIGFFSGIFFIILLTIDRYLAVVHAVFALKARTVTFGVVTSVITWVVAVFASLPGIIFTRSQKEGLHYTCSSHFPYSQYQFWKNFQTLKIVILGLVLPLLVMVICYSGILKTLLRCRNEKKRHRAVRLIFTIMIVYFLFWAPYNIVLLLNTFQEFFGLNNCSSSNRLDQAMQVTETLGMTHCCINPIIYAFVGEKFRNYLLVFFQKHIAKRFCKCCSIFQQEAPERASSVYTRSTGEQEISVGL
Text: A previously tested commercial APC conjugated mouse anti-human/mouse/rat CCR5 antibody from R&D (FAB1802A) (APC-αCCR5) was used as a positive control to assess CCR5 positive cells.

[2] = Phase Ib/II study, safety; format: in vivo; details: Subject 706-001, at Cycle 6 Day 1 visit, weekly leronlimab and carboplatin every three weeks
Text: as §1, §2

[3] = human, in vivo; cited from earlier work
[4] = Subject 706-001, scan 3, with carboplatin
[5] = Subject 706-001, with carboplatin

B1: leronlimab: humanized monoclonal antibody to CCR5; humanized version of the murine mAb PA14 (antibody, chains of the INN, looked up, V domains shown)
VH: EVQLVESGGGLVKPGGSLRLSCAASGYTFSNYWIGWVRQAPGKGLEWIGDIYPGGNYIRNNEKFKDKTTLSADTSKNTAYLQMNSLKTEDTAVYYCGSSFGSNYVFAWFTYWGQGTLVTVSS
VL: DIVMTQSPLSLPVTPGEPASISCRSSQRLLSSYGHTYLHWYLQKPGQSPQLLIYEVSNRFSGVPDRFSGSGSGTDFTLKISRVEAEDVGVYYCSQSTHVPLTFGQGTKVEIK
With B1 the “cell death induced by doxorubicin” value (MDA-MB-231 cells) was “augmented cell killing by DNA damage inducing agents including Doxorubicin; also recorded: enhances the cell death induced by doxorubicin”, the “decrease in size of target lesion” value [1, 4] was 20% and the new lung nodules [1, 4] was “no new lung nodules found”. The “decrease in size of target lesion (as measured by tumor volume)” value [1, 5] was “greater than 20%”, the “new lymphadenopathy or metastatic disease on diagnostic CT chest, abdomen and pelvis” value [1, 5] was “No new lymphadenopathy or metastatic disease reported” and the “right hilar lymph node” value [1, 5] was “resolved”. The “maximum standardized uptake values (SUVs) of right lung metastasis” value ([1]; Subject 706-001, with carboplatin, previously 15.3) was 6.8, the “efficiency of binding to CCR5 positive cells” value (CCR5) was 98% and the “efficiency of binding to CCR5 positive cells” value (CCR5; listed as PRO140) was “up to 98%”. The serious adverse events [2] was “no serious adverse events had been reported” and the adverse events [3] was “without significant adverse events reported”.
